Source: patent publication CN114317455A

B1: 鼠抗MCR-1蛋白单克隆抗体 1HD4 (antibody, V domains shown)
VH: VKLQESGPELVKPGASVKVSCKASGYIFTCCKMYWVKQSHGKSLEWIGYFDPYNGDTSSNQKFKGKVTLTVDKSSSTAYMFLNSLTSEDSAVYYCASWLQNYYAMDYWGQGTSVTVSS
VL: DVQMTQTTSSLSASLGDRVTISCRASQDISNYLNWYQQKPDGTVKLLIYYTSRLHSGVPSRFSGSGSGADYSLTISNLEEEDIATYFCQQGNTFPYTFGGGTKLEIK
B2: 鼠抗MCR-1蛋白单克隆抗体 1JA9 (antibody, V domains shown)
VH: VKLQESGPELVKPGASVKMSCRTSGYTFTSYIMHWVKQKPGQGLEWIGYFNPYTDGSKYNEMFNGKATLSSDKSSGTAYMEFSSLTSEDSAVYYCARGPYGNYAMDYWGQGTSVTVSA
VL: EILLTQTPLSLPVSLGDQASISCRSSQNIVHSYGNPSLEWYLQKPGQSPKLLIYKVSNRFSGVPDRFSGSGSGTDFTLKISRVEAEDLGVYYCFQASHVPWTFGGGTKLEIKR

Key:
MCR-1蛋白 [1] = assay: indirect ELISA; MCR-1 coated at 0.2 ug/mL; purified antibody (1 mg/ml) diluted two-fold from 1:1000; goat anti-mouse secondary
MCR-1蛋白 [2] = assay: double-antibody sandwich ELISA; 1HD4 coated at 0.2 mg/ml as capture, HRP-labelled 1JA9 as detection, OD450

Row | Binder | 效价 (ELISA titer, dilution of 1 mg/ml antibody) (dilution factor (1:x)) (MCR-1蛋白 [1]) | 检测抗原灵敏度 (dilution factor) (dilution factor (1:x)) (MCR-1蛋白 [2])
1 | B1 | > 1.28e+06 | –
2 | B2 | > 1.28e+06 | 5.12e+06
